We go through 2 molecules from PMC7797036.

The test system of one data set is APOBEC3H haplotype VII. The data set can be described thus: fluorescence anisotropy. For orientation: Polarisation of emitted light reports the rotation of a fluorescent probe.
For data set [1], the target named is APOBEC1 (A1), RNase A treated (UniProt P41238). The data set can be described thus: fluorescence anisotropy.
The subject of data set [2] is APOBEC1 (A1), RNase A untreated. The data set can be described thus: fluorescence anisotropy.
The target in the next data set is APOBEC3C (UniProt Q9NRW3 1-190). The data set can be described thus: EMSA. (In general: A gel shift assay detects complexes by their altered migration in electrophoresis.)
APOBEC3C, sequence (Q9NRW3 whole entry): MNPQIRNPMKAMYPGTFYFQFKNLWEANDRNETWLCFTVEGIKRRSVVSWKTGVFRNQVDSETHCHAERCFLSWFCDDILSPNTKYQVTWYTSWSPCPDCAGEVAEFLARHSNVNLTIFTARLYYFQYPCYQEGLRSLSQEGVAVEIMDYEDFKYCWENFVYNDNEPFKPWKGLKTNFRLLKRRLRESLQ

APOBEC1 (A1), RNase A treated, sequence (P41238 whole entry): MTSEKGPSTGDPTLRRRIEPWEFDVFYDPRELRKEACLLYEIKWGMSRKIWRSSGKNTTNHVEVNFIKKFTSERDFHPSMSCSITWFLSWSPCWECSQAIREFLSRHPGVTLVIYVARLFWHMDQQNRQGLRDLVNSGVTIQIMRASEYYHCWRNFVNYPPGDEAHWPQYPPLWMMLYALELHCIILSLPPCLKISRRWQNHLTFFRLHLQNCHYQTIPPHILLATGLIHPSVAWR

As to “118 nt ssDNA with two 5'TTC motifs 63 nt apart”, the binding signal (fold Kd increase vs no RPA) was 3 with APOBEC3H haplotype VII and 9 in data set [1]. Further, the results for the Kd in data set [1] and in data set [2] were 343 nM and 351 nM, respectively.

As for ATTATTATTATTCGAATGGATTTATTTATTTATTTATTTATTT (ssDNA) [43 nt ssDNA], the binding result in the data set with APOBEC3C is “binds”.
